Assay results as given in patent EP1088069B1.

Legend:
Assay in all cases: cell-based or functional assay
[1] = molecular target: Angiostatin + Binding Domain (yeast two-hybrid bait fusion) (UniProt P00747)
Binding Domain alone = molecular target: Binding Domain alone
p53 + Binding Domain = molecular target: p53 + Binding Domain

Chain of UniProt P00747 (P00747 99-459): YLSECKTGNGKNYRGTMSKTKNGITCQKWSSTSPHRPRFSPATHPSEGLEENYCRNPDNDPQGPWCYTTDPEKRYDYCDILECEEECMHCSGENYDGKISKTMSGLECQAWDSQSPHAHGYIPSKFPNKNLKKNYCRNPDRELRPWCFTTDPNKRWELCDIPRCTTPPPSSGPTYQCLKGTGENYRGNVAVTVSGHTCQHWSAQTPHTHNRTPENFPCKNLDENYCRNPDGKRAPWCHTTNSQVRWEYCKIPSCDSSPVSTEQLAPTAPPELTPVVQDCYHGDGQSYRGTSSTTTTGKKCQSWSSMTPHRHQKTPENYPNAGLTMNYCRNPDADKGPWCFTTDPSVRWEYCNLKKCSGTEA

β-Gal Activity [1]	β-Gal Activity (Binding Domain alone)	Substance	β-Gal Activity (p53 + Binding Domain)
< 0.04 u	–	Activation Domain alone (from UniProt P04386 768-881)	–
15 u	0.07 u	Big3 - Activation Domain (yeast two-hybrid prey fusion) (from UniProt Q4VCS5 871-1013)	0.05 u
–	–	SV40LT - Activation Domain (from UniProt P03070 84-708)	90 u
